Test results reported in the supplement of paper PMC12042874.
± gives the uncertainty stated by the source.

experiment: amyloid nucleation score (Sup35N fusion, yeast selection) (log enrichment); library NNK1; higher = more nucleation; inactive = no reads after selection
Procedure, shortened: (§1)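 Peptides of 20 random codons, each fused to Sup35N, were expressed in psi-negative yeast. Cells were induced with 100 μM copper sulfate for 24 hours and grown 7 days at 30°C on medium lacking adenine and uracil, and plasmid inserts before and after selection were Illumina-sequenced. Nucleation scores are DiMSum log enrichments of output over input reads, centred on the mode score of non-aggregating sequences, and sequences under 100 input reads were excluded.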

Which amyloid nucleation score does the source give for AALVCPRFLTSKANFVPSKG here?
Its amyloid nucleation score is “inactive”.

Which amyloid nucleation score does the source give for AARVGVVVF here?
The amyloid nucleation score was 0.065 ± 0.41.

With AASTNSGR as the substance, how does the amyloid nucleation score read?
Its amyloid nucleation score is 0.305 ± 0.68.

With AASVSCNLQQKAKRVAFFLM as the substance, how does the amyloid nucleation score read?
The amyloid nucleation score was 0.726 ± 1.1.

With ACSPSLVL as the substance, how does the amyloid nucleation score read?
The amyloid nucleation score was 1.52 ± 0.84.

Which amyloid nucleation score does the source give for ADCPLCGTYNLSYCMVRLDI here?
The amyloid nucleation score was 0.349 ± 0.28.

With ADNFLFWHVIEYKENLDHAR as the substance, how does the amyloid nucleation score read?
The amyloid nucleation score was -1.32 ± 1.1.

For AEAKN, which amyloid nucleation score is on record?
The amyloid nucleation score was -1.01 ± 0.9.

Which amyloid nucleation score does the source give for AEHNYVRRELAGEPNLV here?
Its amyloid nucleation score is 3.11 ± 0.095.

Which amyloid nucleation score does the source give for AEVTDMGDLFSERMLSVVQI here?
The amyloid nucleation score was -0.499 ± 1.9.

For AFDQGGIYTVPSGKNFPCTL, which amyloid nucleation score is on record?
Its amyloid nucleation score is -0.186 ± 0.4.

For AFGADKTRYMSVFTKCVS, which amyloid nucleation score is on record?
Its amyloid nucleation score is 0.253 ± 0.37.

For AFIFMSTATDDLFFAINL, which amyloid nucleation score is on record?
Its amyloid nucleation score is -0.139 ± 0.35.

With AFPTIAYMIWVFVDVQLCSE as the substance, how does the amyloid nucleation score read?
Its amyloid nucleation score is 1.25 ± 0.58.

Which amyloid nucleation score does the source give for AFRRCTKSFIL here?
The amyloid nucleation score was -0.427 ± 1.9.

With AGFVYFPMYNKLMELFTRGI as the substance, how does the amyloid nucleation score read?
The amyloid nucleation score was 1.29 ± 0.66.

With AGIQIGWVIHSLCSSELRLS as the substance, how does the amyloid nucleation score read?
The amyloid nucleation score was -0.875 ± 0.69.

Which amyloid nucleation score does the source give for AGLWTLRQMWWFTWGSIDII here?
The amyloid nucleation score was “inactive”.

For AGSLAM, which amyloid nucleation score is on record?
The amyloid nucleation score was -0.246 ± 0.48.

Which amyloid nucleation score does the source give for AGVCRNNSPLIHTFNF here?
The amyloid nucleation score was 0.728 ± 0.64.

Which amyloid nucleation score does the source give for AHLAVPSQLNECFIVSLWV here?
Its amyloid nucleation score is 0.328 ± 0.76.

experiment: amyloid nucleation score (Sup35N fusion, yeast selection) (log enrichment); library NNK2; higher = more nucleation; inactive = no reads after selection
Procedure, shortened: as §1

Which amyloid nucleation score does the source give for YFSSTYLRQGIFWCFRMSRL here?
The amyloid nucleation score was -0.43 ± 1.1.

Which amyloid nucleation score does the source give for YFWGMFEYW here?
Its amyloid nucleation score is “inactive”.

With YFYIF as the substance, how does the amyloid nucleation score read?
The amyloid nucleation score was 2.03 ± 0.12.

For YFYLFYCEIRVPTELYLNMP, which amyloid nucleation score is on record?
Its amyloid nucleation score is 3.15 ± 0.06.

For YGALYTVRMEN, which amyloid nucleation score is on record?
The amyloid nucleation score was -0.482 ± 0.49.

With YGFPDF as the substance, how does the amyloid nucleation score read?
The amyloid nucleation score was -1.12 ± 1.1.

For YGFVDSHRTH, which amyloid nucleation score is on record?
The amyloid nucleation score was 0.092 ± 0.61.

Which amyloid nucleation score does the source give for YGKKCLSKAKKSTKISLPG here?
The amyloid nucleation score was 0.016 ± 1.1.

With YGLAFTEDATFFKVCTY as the substance, how does the amyloid nucleation score read?
The amyloid nucleation score was -0.211 ± 0.8.

With YGLIFNLASFMLRGPRTSFS as the substance, how does the amyloid nucleation score read?
The amyloid nucleation score was -2.15 ± 0.64.

For YGPGFILSQMMNWLWYSCSS, which amyloid nucleation score is on record?
The amyloid nucleation score was -0.765 ± 0.78.

Which amyloid nucleation score does the source give for YGQLRHFVRTGLDGGTHRGL here?
The amyloid nucleation score was -0.174 ± 0.76.

Which amyloid nucleation score does the source give for YGRCNGLSGCQRGSCSREGG here?
Its amyloid nucleation score is 0.483 ± 0.46.

For YGRRGELN, which amyloid nucleation score is on record?
The amyloid nucleation score was -0.422 ± 1.1.

With YGVDLSRRMV as the substance, how does the amyloid nucleation score read?
Its amyloid nucleation score is 0.043 ± 0.46.

With YGVFYCSMPYCTSWGIHCVL as the substance, how does the amyloid nucleation score read?
Its amyloid nucleation score is 7.19 ± 0.077.

For YHFTLGCNSEGCR, which amyloid nucleation score is on record?
Its amyloid nucleation score is -0.668 ± 0.24.

Which amyloid nucleation score does the source give for YHRYAAS here?
The amyloid nucleation score was -0.077 ± 0.39.

With YHVRIGSGRAVSLHV as the substance, how does the amyloid nucleation score read?
Its amyloid nucleation score is 0.382 ± 0.5.

With YHVVAWSWTRSYV as the substance, how does the amyloid nucleation score read?
The amyloid nucleation score was 0.561 ± 0.4.

With YHWWDLLLTLREPVRWRIQP as the substance, how does the amyloid nucleation score read?
Its amyloid nucleation score is 1.55 ± 0.23.

Which amyloid nucleation score does the source give for YICRGASGIKSQLREWDVAH here?
Its amyloid nucleation score is -0.269 ± 0.74.

With YIDALSIVFCVAVIGHTPTW as the substance, how does the amyloid nucleation score read?
The amyloid nucleation score was 8.753 ± 0.039.

With YIGLSRATWM as the substance, how does the amyloid nucleation score read?
Its amyloid nucleation score is -1.75 ± 0.62.

For YIGLVSS, which amyloid nucleation score is on record?
Its amyloid nucleation score is -0.052 ± 0.65.

With YIGSVIIWRRKVSRFHLGEA as the substance, how does the amyloid nucleation score read?
The amyloid nucleation score was 0.102 ± 0.79.

With YIHVVNTVSAVGVRRGSVGT as the substance, how does the amyloid nucleation score read?
Its amyloid nucleation score is 0.031 ± 0.76.

With YIKFDGSTWKGVVFYYEMWE as the substance, how does the amyloid nucleation score read?
The amyloid nucleation score was -1.12 ± 0.76.

Which amyloid nucleation score does the source give for YINHSHVRGIVRIYNVQV here?
The amyloid nucleation score was “inactive”.

With YIPIYMGWTGRNRTVMH as the substance, how does the amyloid nucleation score read?
Its amyloid nucleation score is “inactive”.

Which amyloid nucleation score does the source give for YITRFLPQVTVWQRVFCCSY here?
The amyloid nucleation score was 7.454 ± 0.039.

Which amyloid nucleation score does the source give for YITVSSESAWHYTDQATFDA here?
Its amyloid nucleation score is -0.129 ± 1.1.

For YIVDGVGCNCHTGSIVEMSL, which amyloid nucleation score is on record?
The amyloid nucleation score was -0.618 ± 0.32.

For YKETFGIA, which amyloid nucleation score is on record?
Its amyloid nucleation score is -1.36 ± 0.49.

For YKFLLFFYVDTSYVMLFSGF, which amyloid nucleation score is on record?
The amyloid nucleation score was -0.887 ± 1.1.

Which amyloid nucleation score does the source give for YKFSPIHNSRCLNSLHWPKA here?
Its amyloid nucleation score is 0.439 ± 0.74.

For YKSYSNPVLHHYSSLIPGPN, which amyloid nucleation score is on record?
Its amyloid nucleation score is -0.001 ± 0.41.

Which amyloid nucleation score does the source give for YKVNWG here?
Its amyloid nucleation score is 0.854 ± 0.47.

Which amyloid nucleation score does the source give for YKVQTLDAPNYRFIGVFVRS here?
The amyloid nucleation score was -0.711 ± 1.1.

For YKWWCSW, which amyloid nucleation score is on record?
The amyloid nucleation score was -0.62 ± 0.76.

Which amyloid nucleation score does the source give for YLACFTARL here?
Its amyloid nucleation score is 3.91 ± 0.049.

With YLFFKFWNAVCDLIHNTNLY as the substance, how does the amyloid nucleation score read?
Its amyloid nucleation score is “inactive”.

With YLGMLYFLVASHASDFATYW as the substance, how does the amyloid nucleation score read?
The amyloid nucleation score was 4.16 ± 0.051.

Which amyloid nucleation score does the source give for YLGVSSCLMSSSGRSLASTL here?
Its amyloid nucleation score is 4.39 ± 0.09.

With YLHLSQTQWLGLIFNRRSFD as the substance, how does the amyloid nucleation score read?
The amyloid nucleation score was 3.62 ± 0.068.

For YLKMALVMIMYVITYRSTVG, which amyloid nucleation score is on record?
The amyloid nucleation score was 1.65 ± 0.31.

With YLLFEWHYRHTYRCLVRVGA as the substance, how does the amyloid nucleation score read?
Its amyloid nucleation score is -0.166 ± 0.76.

With YLLLNYQACTMLDWNWVWVW as the substance, how does the amyloid nucleation score read?
Its amyloid nucleation score is 5.31 ± 0.071.

Which amyloid nucleation score does the source give for YLMSFGPWGNYYFRSCKLWL here?
The amyloid nucleation score was 6.42 ± 0.082.

With YLNVNNSQDNESAYVFDKVV as the substance, how does the amyloid nucleation score read?
Its amyloid nucleation score is 0.058 ± 0.74.

Which amyloid nucleation score does the source give for YLPPNKNWFFVWVDFSSWVF here?
The amyloid nucleation score was -0.627 ± 0.61.

With YLRTCI as the substance, how does the amyloid nucleation score read?
The amyloid nucleation score was -0.084 ± 0.49.

Which amyloid nucleation score does the source give for YLRTFAKYWNPNARQLSIMR here?
The amyloid nucleation score was “inactive”.

Which amyloid nucleation score does the source give for YLSDNHYWCWSYESF here?
Its amyloid nucleation score is -0.725 ± 0.41.

For YLWDRSATRS, which amyloid nucleation score is on record?
The amyloid nucleation score was 0.605 ± 0.29.

With YMADSPLELDSSMTDYLCPV as the substance, how does the amyloid nucleation score read?
The amyloid nucleation score was 4.18 ± 0.069.

Which amyloid nucleation score does the source give for YMSVSSKGQRVCFTT here?
The amyloid nucleation score was -0.488 ± 0.63.

With YMTVLLMSVFNWSQSRRPP as the substance, how does the amyloid nucleation score read?
Its amyloid nucleation score is 3.55 ± 0.077.

For YMVLSHVVQPFNHLGISWPC, which amyloid nucleation score is on record?
Its amyloid nucleation score is “inactive”.

Which amyloid nucleation score does the source give for YMYLTCSLGSVCRFLSEHMW here?
The amyloid nucleation score was -0.605 ± 0.36.

Which amyloid nucleation score does the source give for YNARFSTNLTRFGVGF here?
Its amyloid nucleation score is -1.15 ± 1.1.

For YNCLRMELVLSHKGDLTLM, which amyloid nucleation score is on record?
The amyloid nucleation score was 5.25 ± 0.091.

With YNIFPIISLITRNK as the substance, how does the amyloid nucleation score read?
Its amyloid nucleation score is 6.42 ± 0.064.

Which amyloid nucleation score does the source give for YNKGPLTGMFYMEGASVNIC here?
Its amyloid nucleation score is “inactive”.

With YNLYHSCLDQRTYHSGKFSI as the substance, how does the amyloid nucleation score read?
Its amyloid nucleation score is 2.3 ± 0.14.
